Laboratory results published in publication PMC2686732, “Both Ca^2+ and Zn^2+ are essential for S100A12 protein oligomerization and function” (BMC Biochemistry, 2009).

Key:
[1] = target: the molecule itself; assay: native gel or EMSA; native PAGE, 7.5% gel, Tris-glycine pH 8.8, 14 ug S100A12 in 2 mM Ca
[2] = target: the molecule itself; assay: native gel or EMSA; native PAGE, 7.5% gel, Tris-glycine pH 8.8, 14 ug S100A12 with 5 uM Zn
[3] = target: the molecule itself; assay: SEC; Superdex 200, 50 mM Tris-HCl pH 7.5, 200 mM NaCl, 20 C, 1 mg/ml injected; no ions added
[4] = target: the molecule itself; assay: native gel or EMSA; native PAGE, S100A12 in the presence of both Ca and Zn (also with the copper I chelator BCS)
[5] = target: the molecule itself; assay: native gel or EMSA; native PAGE, S100A12 with zinc and calcium plus TPEN (zinc chelator) or EDTA (divalent ion chelator)
[6] = target: T1, Human RAGE-Fc fusion protein (human, UniProt Q15109 23-342); assay: SPR; S100A12 immobilised (2,933 RU) by amine coupling on CM5; RAGE/Fc (125 nM) injected 3 min at 30 ul/min; HBS-P buffer with 1 mM Ca2+ and 20 uM Zn2+; 1:1 Langmuir model; conditions: both partners purified
T1 construct: RAGE (Receptor for Advanced Glycation End products), human; also called recombinant human RAGE/Fc; source: bought: R&D Systems
T1 sequence (Q15109 23-342): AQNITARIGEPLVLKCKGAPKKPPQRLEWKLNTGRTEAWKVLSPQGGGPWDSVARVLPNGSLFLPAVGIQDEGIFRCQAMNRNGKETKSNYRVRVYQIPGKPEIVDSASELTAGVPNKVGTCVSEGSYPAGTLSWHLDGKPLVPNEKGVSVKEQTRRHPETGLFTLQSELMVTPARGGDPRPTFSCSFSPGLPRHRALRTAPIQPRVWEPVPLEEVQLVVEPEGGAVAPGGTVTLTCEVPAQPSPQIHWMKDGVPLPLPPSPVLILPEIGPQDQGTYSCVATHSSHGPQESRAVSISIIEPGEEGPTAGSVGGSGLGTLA

Kd [6]: 4.6 nM | koff [6]: 0.00032 s⁻¹ | kon [6]: 68000 M⁻¹ s⁻¹
B1: Recombinant full-length human S100A12 (natural protein, UniProt P80511 1-92, looked up)
chain: MTKLEEHLEGIVNIFHQYSVRKGHFDTLSKGELKQLLTKELANTIKNIKDKAVIDEIFQGLDANQDEQVDFQEFISLVAIALKAAHYHTHKE
notes: S100A12, human, full length; expressed from a modified pQE60 vector with a stop codon inserted so that the protein has no histidine tag; Oligomeric state (dimer, tetramer, hexamer) depends on Ca2+ and Zn2+ in the sample; [U-15N] labelled for the NMR experiments; also called apo-S100A12; Ca2+-S100A12; source: E. coli, purified (Phenyl-Sepharose, ResQ ion exchange)
stoichiometry N [1]: ~6 | stoichiometry N [2]: ~4 | stoichiometry N [3]: 4 | stoichiometry N [4]: 6 | stoichiometry N [5]: 2
